The target in test [1] is platelet glycoprotein Ib (GPIb) (human) (UniProt P07359). Description: platelet adhesion to immobilized VCL against immobilized albumin in a laminar flow cell.
Test [2] shares this target.
For test [3] the target is unchanged. The source holds these as a separate data set.
The target is the same in test [4]. This is another data set of the same source.
The target is the same in test [5]. This is another data set of the same source.
Test [6] has the same target. Description: platelet adhesion to immobilized VCL on a glass cover slip in a laminar flow cell.
For test [7] the target is unchanged. This is another data set of the same source.
The target is the same in test [8]. The source holds these as a separate data set.
Test [9] has the same target. This is another data set of the same source.
Test [10] shares this target. The source holds these as a separate data set.
The target is the same in test [11]. The source holds these as a separate data set.
Test [12] has the same target. This is another data set of the same source.
Test [13] shares this target. This is another data set of the same source.
In test [14] the test system is rat platelet rich plasma (PRP). The experiment in a line: vWF-dependent platelet aggregation assay in platelet rich plasma (PRP). The format is cell-based. Conditions: ristocetin up to 5.0 mg/ml, no additional agent. On the procedure:
This is a standardized von Willebrand Factor (vWF)-dependent aggregation assay using human or rat platelet rich plasma (PRP). The addition of various concentrations of unfractionated Bothrops jararaca venom (BJV), which includes botrocetin and an additional thrombin-like component, or ristocetin results in an aggregatory response in the absence of any additional agent. Using ristocetin (1.5 mg/ml) as the agonist 43 μg/ml VCL abolished the aggregation of human PRP.

“And” between values parts separate entries of the source, which are not always exact repeats. Identical values can stand only once.

As to “VCL, a vWF GPIb binding domain polypeptide (methionine plus amino acids 504-728 of mature human vWF) (ligand)”, in test [1], the fold of adhesion to albumin came out at 10 fold. For the same substance, in test [2], the platelet adhesion to immobilized fibrinogen in a laminar flow cell was 75 % inhibition. For the same substance, in test [3], the Dissolution of preformed aggregates (made by RIPA) is 0.5 µM VCL; the IC50, Asialo vWF induced platelet aggregation is 0.15 µM VCL; the IC50, Platelet deposition under conditions of flow (everted denuded human umbilical artery, whole human blood) stood at 1 µM VCL; the IC50, Ristocetin induced platelet aggregation was 0.2 µM VCL and 0.3 µM VCL. This substance also registered an IC50, Thrombin induced platelet aggregation in [3] of 0.3 µM VCL. This substance also registered an IC50, platelet adhesion to ECM at a shear rate of 1300 s^-1 in test [4] of 800 nM. The substance also had a % Inhibition of Platelet Aggregation (asialo-vWF induced, in PRP) in test [5] of 76%. In addition, the percent coverage of the test surface by platelets in test [6] is below 5 % coverage. The substance further came in with a platelet deposition on damaged porcine aorta perfused ex vivo with normal human blood in test [7] of 60 % reduction. The Ristocetin induced platelet aggregation (RIPA) in test [8] was found to be 100 % inhibition. In test [9], this substance yielded a platelet adhesion to endothelial cell extracellular matrix (ECM) in a laminar flow cell of 70 % inhibition. The substance also gave a platelet adhesion to immobilized vWF in a laminar flow cell in [10] of 25 % inhibition. In addition, the platelet adhesion to immobilized collagen (type I) in a laminar flow cell in [11] was 50 % inhibition. This substance also had a platelet adhesion to immobilized fibronectin in a laminar flow cell in test [12] of 80 % inhibition. This substance gave a % Inhibition of Platelet Aggregation (ristocetin induced, washed human platelets with intact vWF) in [13] of 100%.
ristocetin: the “Aggregation of rat PRP induced by ristocetin” value in test [14] is “did not cause measurable aggregation”.

Values taken from US6008193A, “Methods of using human von Willebrand factor GPIb binding domain polypeptides” (Bio-Technology General Corp., priority 1995, dated 1999).
